Data as given in patent US20040132130.

System: Ac-Ala-Ala-Pro-Thr(Man)-Pro-Val-Ala-Ala-Pro-NH2

His-Xpress-sOMGnT(L), sequence (chain, as listed by the source): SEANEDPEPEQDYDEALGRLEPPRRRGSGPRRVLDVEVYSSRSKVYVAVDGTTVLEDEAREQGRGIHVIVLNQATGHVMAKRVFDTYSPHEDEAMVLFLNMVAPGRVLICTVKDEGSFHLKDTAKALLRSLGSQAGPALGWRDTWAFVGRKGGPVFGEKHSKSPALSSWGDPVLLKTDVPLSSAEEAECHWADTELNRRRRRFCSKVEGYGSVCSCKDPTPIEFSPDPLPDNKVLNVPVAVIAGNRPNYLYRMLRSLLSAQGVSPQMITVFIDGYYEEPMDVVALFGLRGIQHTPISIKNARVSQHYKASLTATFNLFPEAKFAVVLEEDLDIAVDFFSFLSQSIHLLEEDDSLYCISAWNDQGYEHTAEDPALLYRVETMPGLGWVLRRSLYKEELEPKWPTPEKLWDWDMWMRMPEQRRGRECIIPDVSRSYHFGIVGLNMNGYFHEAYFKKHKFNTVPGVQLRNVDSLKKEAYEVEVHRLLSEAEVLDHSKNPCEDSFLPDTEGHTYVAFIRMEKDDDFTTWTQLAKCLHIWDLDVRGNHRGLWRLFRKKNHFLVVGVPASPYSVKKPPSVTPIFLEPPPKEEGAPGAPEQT

His-Xpress-sOMGnT(L) was tested, and the Km value was 1.85 mM, the OMGnT activity (pmol/hr/mg protein) (pmol/hr/mg protein) was 15 and the OMGnT relative activity (%) was 100%.
